Experimental data published in patent US20220363732A1 (MAX DELBR CK CENTRUM F R MOLEKULARE MEDIZIN IN DER …, published 2022).

T1: CD5 peptide on HLA-A*02:01 (human)
T1 peptide: YLKDGWHMV

T2: CD5 peptide on HLA-A*02:01 (human)
T2 peptide: SICEGTVEV

B1: T-20109 TCR (TCR, V domains shown)
V domain 1: AQKITQTQPGMFVQEKEAVTLDCTYDTSDPSYGLFWYKQPSSGEMIFLIYQGSYDQQNATEGRYSLNFQKARKSANLVISASQLGDSAMYFCAMREEYSGAGSYQLTFGKGTKLSVIP
V domain 2: EPEVTQTPSHQVTQMGQEVILRCVPISNHLYFYWYRQILGQKVEFLVSFYNNEISEKSEIFDDQFSVERPDGSNFTLKIRSTKLEDSAMYFCASSQGPYNEQFFGPGTRLTVLE
B2: T-20332 TCR (TCR, V domains shown)
V domain 1: AQKITQTQPGMFVQEKEAVTLDCTYDTSDPSYGLFWYKQPSSGEMIFLIYQGSYDQQNATEGRYSLNFQKARKSANLVISASQLGDSAMYFCAMREEYSGAGSYQLTFGKGTKLSVIP
V domain 2: EPEVTQTPSHQVTQMGQEVILRCVPISNHLYFYWYRQILGQKVEFLVSFYNNEISEKSEIFDDQFSVERPDGSNFTLKIRSTKLEDSAMYFCASSRGPYNEQFFGPGTRLTVLE
B3: T-20109 (TCR, V domains shown)
Valpha: AQKITQTQPGMFVQEKEAVTLDCTYDTSDPSYGLFWYKQPSSGEMIFLIYQGSYDQQNATEGRYSLNFQKARKSANLVISASQLGDSAMYFCAMREEYSGAGSYQLTFGKGTKLSVIP
Vbeta: EPEVTQTPSHQVTQMGQEVILRCVPISNHLYFYWYRQILGQKVEFLVSFYNNEISEKSEIFDDQFSVERPDGSNFTLKIRSTKLEDSAMYFCASSQGPYNEQFFGPGTRLTVL
B4: T-20332 (TCR, V domains shown)
Valpha: AQKITQTQPGMFVQEKEAVTLDCTYDTSDPSYGLFWYKQPSSGEMIFLIYQGSYDQQNATEGRYSLNFQKARKSANLVISASQLGDSAMYFCAMREEYSGAGSYQLTFGKGTKLSVIP
Vbeta: EPEVTQTPSHQVTQMGQEVILRCVPISNHLYFYWYRQILGQKVEFLVSFYNNEISEKSEIFDDQFSVERPDGSNFTLKIRSTKLEDSAMYFCASSRGPYNEQFFGPGTRLTVL
B5: T-7378 (TCR, V domains shown)
Valpha: AQTVTQSQPEMSVQEAETVTLSCTYDTSESDYYLFWYKQPPSRQMILVIRQEAYKQQNATENRFSVNFQKAAKSFSLKISDSQLGDAAMYFCAYRGTSGTYKYIFGTGTMLKVLA
Vbeta: DTEVTQTPKHLVMGMTNKKSLKCEQHMGHRAMYWYKQKAKKPPELMFVYSYEKLSINESVPSRFSPECPNSSLLNLHLHALQPEDSALYLCASSRGLAGPYEQYFGPGTRLTVT

Legend:
[1] = biological target: CD5 51-59 epitope (…, SEQ ID NO: 1) in complex with HLA-A2 (human); assay: cell-based or functional assay
[2] = biological target: T1, CD5 peptide on HLA-A*02:01; assay: killing
[3] = biological target: T2, CD5 peptide on HLA-A*02:01; assay: killing

Binder | Kd value from peptide titration on peptide loaded T2 cells: fold increase for RNAi-CD5 TCR T cells from HLA-A2+ donors against TCR-transduced T cells from an HLA-A2- donor [1] | binding result [2] | also measured
B1 | 2.24 fold | – | –
B2 | 1.48 fold | – | –
B3 | – | recognises | –
B4 | – | recognises | –
B5 | – | – | binding result [3]: recognises
